Experiments:
TREM-1 [1] = target: T1, TREM-1 (Mus musculus, UniProt Q9JKE2); assay: Mouse myocardial infarction, myocardial inflammatory reaction and protease activity in infarcted tissue; type: in vivo; conditions: myocardium after coronary artery ligation
T1 construct: endogenous in cells; host or cells: living mice (C57BL, Balb/c, ApoE-/-), in vivo
T1 sequence (Q9JKE2 21-230): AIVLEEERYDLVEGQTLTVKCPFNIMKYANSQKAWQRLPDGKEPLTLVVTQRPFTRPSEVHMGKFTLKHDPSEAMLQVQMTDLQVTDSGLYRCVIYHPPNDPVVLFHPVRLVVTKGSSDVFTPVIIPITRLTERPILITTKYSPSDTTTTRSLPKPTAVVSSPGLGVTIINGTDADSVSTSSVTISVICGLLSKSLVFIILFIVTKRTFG
Procedure: For these experiments, myocardial lysate was obtained 24 hours after the induction of myocardial infarction from mice treated with TREM-1- and TLT-1-derived peptides or control LR12-scrambled peptide (‘controls’). Two areas were studied: a healthy area harvested distally from the infarcted zone in a control animal and an infarcted area. Data are representative of at least 5 different experiments. Results are mean±SD. p values are *p<0.001 [LR12 versus controls].
For these experiments, myocardial lysate was obtained 6, 24 and/or 96 hours after the induction of myocardial infarction from mice treated with TREM-1- and TLT-1-derived peptides or control LR12-scrambled peptide (‘controls’). Infarcted areas were analyzed for cytokine/chemokine production. Data are representative of at least 5 different experiments. p values are *p<0.001 [LR12 versus controls].
For these experiments, myocardial lysate was obtained 6, 24 and 96 hours after the induction of myocardial infarction from mice treated with TREM-1- and TLT-1-derived peptides or control LR12-scrambled peptide (‘controls’). Infarcted areas were analyzed. […]
Mice were monitored after surgery for mortality. Mice were randomized to receive or not peptides (daily ip injection for 5 days, 5 mg/kg) and monitored for survival. […]
MMP-9 enzymatic activity in tissue extracts was determined by SDS-PAGE gelatin zymography. […]

TREM-1 [2] = target: T1, TREM-1; assay: Mouse myocardial infarction, leukocyte recruitment and mobilization (flow cytometry), plasma chemokines; type: in vivo
Procedure: All procedures were performed on mice male C57BL/C ranging in age from 6-8 weeks. Mice were anesthetized by an intraperitoneal injection of xylazine (60 mg/kg) and fixed in supine position. The trachea was intubated and ventilated (the tidal volume was 200 μl/25 g and the respiratory rate was 120 breaths/min). After a left thoracotomy, the left coronary artery was identified and ligated with an 8-0 prolene surgical suture at 1.0 mm distal from tip of the left auricle. LAD occlusion was confirmed by a change in myocardial color from red to white in the ischemia area (Left ventricle). The chest was closed and the skin was sutured with 6-0 silk. The animals returned to their cage where they are supervised until their complete recovery.
Mice were monitored after surgery for mortality. Mice were randomized to receive or not peptides (daily ip injection for 5 days, 5 mg/kg) and monitored for survival. […] A median sternotomy was performed followed by excision of the heart and dissection of ischemic and non-ischemic areas. ARN extraction and protein extraction were then performed for RT-PCR, WB, immunohistology, and ELISA analysis.
To prepare single-cell suspensions from infarct tissue, hearts were harvested; minced with fine scissors; placed into a cocktail of collagenase I, collagenase XI, DNase I, and hyaluronidase (Sigma-Aldrich); and shaken at 37° C. for 1 h. Cells were then triturated through and centrifuged (15 min, 500 g, 4° C.).
Spleens were removed, triturated in HBSS at 4° C. with the end of a 3-ml syringe, and filtered through 70-μm nylon filters (BD). The cell suspension was centrifuged at 300 g for 10 min at 4° C. Red blood cells were lysed (Red Blood Cells Lysis solution, Miltenyi), and the splenocytes were washed with HBSS and resuspended in HBSS supplemented with 0.2% (wt/vol) BSA. Peripheral blood was drawn via cardiac puncture with citrate solution as anticoagulant, and red blood cells were lysed. Finally, bone-marrow single-cell suspensions were obtained from femurs after flushing them with 1 mL HBSS, filtering through 70-μm nylon filters and centrifugation at 300 g for 10 min at 4° C. Total viable cell numbers were determined from aliquots using a hemacytometer with Trypan blue (BioRad).
Cell suspensions were incubated in a cocktail of mAbs against CD4^+ or CD8^+ T cells (CD4- or CD8-APC, CD3ε-PE, CD45-FITC), B cells (CD19-PE, CD45-FITC), granulocytes (CD45-FITC, Ly-6G-APC), monocytes subsets (CD115-PE, Ly-6C-APC, CD45-FITC), all antibodies from Miltenyi Biotech. Reported cell numbers were calculated as the product of total living cells (total viable leukocytes per ml) and percentage of cells within selected gate, and reported per mg of tissue (heart), per organ (femur and spleen), or per mL (blood). Data were acquired on a FC500 cytometer (Beckman Coulter).

Sequence: LQEEDAGEYGCM (listed as Homo sapiens) [TLT1-LR12]
- myocardial infarction-induced gene activation (innate immunity / endothelial function genes) (TREM-1 [1]): opposed to myocardial infarction-induced gene activation
- peripheral blood neutrophilia (TREM-1 [2]; 72 hours after MI): not observed
- B- and CD8+-lymphocyte infiltration of infarcted myocardium (TREM-1 [2]; mouse MI): reduced
- CD4+-cells recruitment to infarcted myocardium (TREM-1 [2]; mouse MI): increased
- PMN infiltration of infarcted myocardium (TREM-1 [2]; mouse MI): blocked
